What was measured:
[1] = molecular target: ryanodine receptor 1 (RyR1) in porcine skeletal SR membranes (pig (endogenous in porcine skeletal muscle SR)) (UniProt P16960); experiment: co-sedimentation; 1-60 nM AF488-FKBP12.6 with SR membranes (0.02 mg/ml skeletal, 0.12 mg/mL cardiac), 90 min at 37 °C, 150 mM KCl, 20 mM K-PIPES pH 7.0, 5 mM GSH, 0.1 mg/ml BSA, 30 nM free Ca2+; bound and free separated at 100,000 x g; non-specific binding with 5 µM unlabeled FKBP12.6 (skeletal) or 20 µM tacrolimus (cardiac); bound AF488 read by fluorescence
[2] = molecular target: cardiac muscle ryanodine receptor RyR2 in porcine cardiac SR membranes (pig (endogenous in porcine cardiac SR membranes)); experiment: co-sedimentation; cardiac SR membranes (0.12 mg/mL) incubated 90 min at 37 °C with 1-60 nM AF488-FKBP12.6 in 150 mM KCl, 20 mM K-PIPES pH 7.0, 5 mM GSH, 0.1 mg/ml BSA, 1 mM EGTA, 65 µM CaCl2 (30 nM free Ca2+); non-specific binding with 20 µM tacrolimus; bound and free separated at 100,000 x g for 25 min; fluorescence of the pellet; Kd from Hill fit, n = 5
[3] = molecular target: skeletal muscle ryanodine receptor RyR1 in porcine skeletal SR membranes (pig (endogenous in porcine skeletal SR membranes)) (UniProt P16960); experiment: co-sedimentation; skeletal SR membranes (0.02 mg/ml) incubated 90 min at 37 °C with 1-60 nM AF488-FKBP12.6 in 150 mM KCl, 20 mM K-PIPES pH 7.0, 5 mM GSH, 0.1 mg/ml BSA, 1 mM EGTA, 65 µM CaCl2 (30 nM free Ca2+); non-specific binding with 5 µM unlabeled FKBP12.6; bound and free separated at 100,000 x g for 25 min; fluorescence of the pellet; Kd from Hill fit, n = 3
[4] = molecular target: ryanodine receptor 1 (RyR1) in porcine skeletal SR membranes (pig (endogenous in porcine skeletal muscle SR)) (UniProt P16960)

Substance | Kd [1] | Kd [2] | Kd [3] | [^3H]ryanodine binding as an index of channel activity, 800 nM CaM, 30 nM Ca2+: increase [4]
AF488-G1C-FKBP12.6 (natural protein) | 12.6 nM | – | – | –
AF488-T6C-FKBP12.6 (natural protein) | 7.3 nM | – | – | –
AF488-labeled E32C FKBP12.6 (null-cysteine background) (natural protein) | – | 1.6 nM | 4.9 nM | –
AF488-labeled G1C FKBP12.6 (null-cysteine background) (natural protein) | – | 5 nM | – | –
AF488-labeled K44C FKBP12.6 (null-cysteine background) (natural protein) | – | 3.7 nM | 4.7 nM | –
AF488-labeled Q65C FKBP12.6 (null-cysteine background) (natural protein) | – | 2.3 nM | 3.9 nM | –
AF488-labeled R49C FKBP12.6 (null-cysteine background) (natural protein) | – | 3.6 nM | 6.4 nM | –
AF488-labeled T6C FKBP12.6 (null-cysteine background) (natural protein) | – | 2.7 nM | – | –
AF488-labeled T14C FKBP12.6 (null-cysteine background) (natural protein) | – | 3.2 nM | 3.7 nM | –
AF488-labeled T85C FKBP12.6 (null-cysteine background) (natural protein) | – | 1.9 nM | 5.8 nM | –
unlabeled WT-CaM (from UniProt P0DP23 1-149) (natural protein) | – | – | – | 20 fold
